The chains are these.
B2: T20S α subunit, wild type (natural protein, Thermoplasma acidophilum)
chain: MQQGQMAYDRAITVFSPDGRLFQVEYAREAVKKGSTALGMKFANGVLLISDKKVRSRLIEQNSIEKIQLIDDYVAAVTSGLVADARVLVDFARISAQQEKVTYGSLVNIENLVKRVADQMQQYTQYGGVRPYGVSLIFAGIDQIGPRLFDCDPAGTINEYKATAIGSGKDAVVSFLEREYKENLPEKEAVTLGIKALKSSLEEGEELKAPEIASITVGNKYRIYDQEEVKKFL
notes: Proteasome subunit alpha, Thermoplasma acidophilum; Subunit of m1, written alone for the subunit-subunit rows of the structures; also called proteasome α-subunit
B3: T20S α subunit L81Y (natural protein, Thermoplasma acidophilum)
chain: MQQGQMAYDRAITVFSPDGRLFQVEYAREAVKKGSTALGMKFANGVLLISDKKVRSRLIEQNSIEKIQLIDDYVAAVTSGYVADARVLVDFARISAQQEKVTYGSLVNIENLVKRVADQMQQYTQYGGVRPYGVSLIFAGIDQIGPRLFDCDPAGTINEYKATAIGSGKDAVVSFLEREYKENLPEKEAVTLGIKALKSSLEEGEELKAPEIASITVGNKYRIYDQEEVKKFL
notes: Proteasome subunit alpha, Thermoplasma acidophilum; α subunit of the mutant 20S whose cryo-EM structure is solved here; also called T20S-αL81Y; T20S L81Y

Data set [1] concerns the molecule itself. As to the kind of experiment: cryo-EM structure; T20S-αL81Y, 0.5 mg/mL in 50 mM Tris pH 7.4, 150 mM NaCl; D7 symmetry; partially open gate.
Data set [2] concerns the target B3. The description is as above. The conditions noted are these: both partners purified.
Data set [3] addresses B2. The data set can be described thus: cryo-EM structure; WT T20S, 0.5 mg/mL in 50 mM Tris pH 7.4, 150 mM NaCl; D7 symmetry; closed gate. The settings on record: both partners purified.
Data set [4] deals with the molecule itself. The data set is described as above.

B1: T20S β subunit (natural protein, Thermoplasma acidophilum, UniProt P28061 9-211, looked up)
chain: TTTVGITLKDAVIMATERRVTMENFIMHKNGKKLFQIDTYTGMTIAGLVGDAQVLVRYMKAELELYRLQRRVNMPIEAVATLLSNMLNQVKYMPYMVQLLVGGIDTAPHVFSIDAAGGSVEDIYASTGSGSPFVYGVLESQYSEKMTVDEGVDLVIRAISAAKQRDSASGGMIDVAVITRKDGYVQLPTDQIESRIRKLGLIL
notes: Proteasome subunit beta, Thermoplasma acidophilum; Subunit of m1, written alone for the subunit-subunit rows of the structures
On to B1, for which the binding result in data set [1], in data set [2] and in data set [3] was “binds” in each case.
Turning to B2, the binding result in data set [4] is on record as “binds”.
For B3, the binding result in data set [1] is on record as “binds”.
